In article PMC10539519, “Computational remodeling of an enzyme conformational landscape for altered substrate selectivity” (Nature Communications, 2023):
Residue numbers refer to the chain shown, from its start. Names may count otherwise.

T1: E. coli aspartate aminotransferase (AAT) (Escherichia coli, UniProt P00509)
T1 construct: gene aspC; full-length, N-terminal His-tag, expressed in E. coli BL21-Gold (DE3), Ni-NTA purified; 90 kDa homodimer, PLP-dependent
T1 sequence (P00509 1-396): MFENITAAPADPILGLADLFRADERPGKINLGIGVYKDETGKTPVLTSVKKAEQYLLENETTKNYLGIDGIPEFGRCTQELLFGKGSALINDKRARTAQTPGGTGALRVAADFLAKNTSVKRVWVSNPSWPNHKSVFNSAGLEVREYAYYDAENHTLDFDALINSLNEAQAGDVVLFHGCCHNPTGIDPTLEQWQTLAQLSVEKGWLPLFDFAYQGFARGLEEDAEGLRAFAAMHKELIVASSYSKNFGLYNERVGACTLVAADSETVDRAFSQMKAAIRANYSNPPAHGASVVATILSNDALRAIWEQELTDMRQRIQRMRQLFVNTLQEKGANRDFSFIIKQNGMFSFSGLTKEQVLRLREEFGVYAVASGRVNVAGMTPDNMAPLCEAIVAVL

B1: wild-type E. coli aspartate aminotransferase (enzyme)
chain: T1 sequence (P00509 1-396)
modifications: imine bond between PLP and K246 (internal aldimine)
notes: aspartate aminotransferase (AAT), Escherichia coli, UniProt P00509; Gene with N-terminal His-tag in pET-45b; also called AAT; WT; source: E. coli BL21-Gold (DE3), purified (Ni-NTA, gel filtration)
B2: E. coli aspartate aminotransferase hexamutant HEX (enzyme)
chain: T1 sequence (P00509 1-396) with V35L, K37Y, T43I, N64L, T104S, N285S
modifications: imine bond between PLP and K246 (internal aldimine)
notes: aspartate aminotransferase (AAT), Escherichia coli, UniProt P00509, with six mutations; T104S and N285S are T109S and N297S in the numbering of PDB 1AHE and 1AHY; Mutant genes were ligated into pET-11a; the proteins were purified on Ni-NTA; source: E. coli BL21-Gold (DE3), purified (Ni-NTA, gel filtration)
B3: E. coli aspartate aminotransferase (AAT) (Escherichia coli K-12; K37F/N64Y/T43I) (protein)
chain: T1 sequence (P00509 1-396) with K37F, T43I, N64Y
notes: full-length, N-terminal His-tag, expressed in E. coli BL21-Gold (DE3), Ni-NTA purified; 90 kDa homodimer, PLP-dependent
B4: E. coli aspartate aminotransferase (AAT) (Escherichia coli K-12; K37F/N64S/T43C) (protein)
chain: T1 sequence (P00509 1-396) with K37F, T43C, N64S
notes: as for B3
B5: E. coli aspartate aminotransferase (AAT) (Escherichia coli K-12; K37I/N64S/T43F/V35A) (protein)
chain: T1 sequence (P00509 1-396) with V35A, K37I, T43F, N64S
notes: as for B3
B6: E. coli aspartate aminotransferase (AAT) (Escherichia coli K-12; K37Y/N285S/N64L/T104S/T43I/V35L) (protein)
chain: T1 sequence (P00509 1-396) with V35L, K37Y, T43I, N64L, T104S, N285S
notes: as for B3
B7: E. coli aspartate aminotransferase (AAT) (Escherichia coli K-12; K37F/N64T/T43I) (protein)
chain: T1 sequence (P00509 1-396) with K37F, T43I, N64T
notes: as for B3
B8: E. coli aspartate aminotransferase (AAT) (Escherichia coli K-12) (protein)
chain: T1 sequence (P00509 1-396)
notes: as for B3

Biological target: the molecule itself
Experiment: crystal structure; X-ray crystallography, space group P 6_(3), two chains in the asymmetric unit; crystals grown with 20 mM maleate and ammonium sulfate, with or without soaking to remove maleate; data at 278 K (AIFS at 100 K; WT, HEX, VFIT also at 303 K)
Settings: not given

B1 and B2 are the same in “stoichiometry N” value: 2 for the first, 2 for the second.

substrate: N[C@@H](Cc1ccccc1)C(=O)O; experiment: purified protein; type: biochemical, Escherichia coli; settings: co-substrate α-ketoglutarate (fixed, 0.1563–1.25 mM range), 16 µM PLP, 5 mM NAD+, 100 mM potassium phosphate pH 8, 37 °C

Going from B3 to B4, the Km rises from 420 ± 40 µM to 12000 ± 1000 µM (29-fold).

Compared with B5, B6 is 9.6-fold lower in Km: 2600 ± 200 µM for the first, 270 ± 30 µM for the second.

For B7, the Km was 900 ± 60 µM.

Going from B3 to B4, the kcat rises from 17.3 ± 0.4 s⁻¹ to 87 ± 3 s⁻¹ (5-fold).

First: B5
Second: B6
The kcat of the first is 17-fold lower: 0.54 ± 0.01 s⁻¹ for the first, 9 ± 0.2 s⁻¹ for the second.

B7 was tested, and the kcat was 22.8 ± 0.4 s⁻¹.

Compared with B3, B4 is 5.7-fold lower in kcat/Km: 41000 ± 4000 M⁻¹ s⁻¹ for the first, 7200 ± 700 M⁻¹ s⁻¹ for the second.

Compared with B5, B6 is 160-fold higher in kcat/Km: 210 ± 20 M⁻¹ s⁻¹ for the first, 33000 ± 4000 M⁻¹ s⁻¹ for the second.

B7 gave a kcat/Km of 25000 ± 2000 M⁻¹ s⁻¹.

substrate: O=C(O)CCC(=O)C(=O)O; experiment: purified protein; type: biochemical, Escherichia coli; settings: α-ketoglutarate varied 0.002–20 mM, co-substrate 10–20 mM L-aspartate or L-phenylalanine, substrate inhibition, 16 µM PLP, pH 8, 37 °C

B8 was tested, and the Km was 65 ± 5 µM.

With B8 the kcat was 12.2 ± 0.3 s–1.

biological target: T1, E. coli aspartate aminotransferase (AAT); experiment: room-temperature X-ray crystallography; type: binding; settings: co-crystallised with 20 mM maleate, 278 K; contacts Arg280 and Arg374; closed conformation

`O=C(O)/C=C\C(=O)O` [maleate] was tested, and the “room-temperature X-ray crystallography” value was “electrostatic interactions between maleate and the side chains of Arg280 and Arg374”.

same assay, conditions: covalent internal aldimine with K246; 10 µM PLP in crystallisation

With `Cc1ncc(COP(=O)(O)O)c(C=O)c1O` [pyridoxal phosphate] the “room-temperature X-ray crystallography” value was “Restraints for PLP in its internal aldimine form were generated using phenix.elbow”.

substrate: N[C@@H](CC(=O)O)C(=O)O; experiment: purified protein; settings: co-substrate α-ketoglutarate (fixed, 0.1563–1.25 mM range), 16 µM PLP, 5 mM NAD+, 100 mM potassium phosphate pH 8, 37 °C

Going from B8 to B3, the Km falls from 210 ± 30 µM to 120 ± 10 µM (1.8-fold).

Compared with B4, B5 is 4.7-fold higher in Km: 68 ± 7 µM for the first, 320 ± 30 µM for the second.

Going from B6 to B7, the Km falls from 59 ± 7 µM to 27 ± 3 µM (2.2-fold).

Going from B8 to B3, the kcat falls from 7.8 s⁻¹ to 0.263 s⁻¹ (30-fold).

Compared with B4, B5 is 2.5-fold lower in kcat: 6 s⁻¹ for the first, 2.42 s⁻¹ for the second.

B6 and B7 are within 1.5-fold of each other in kcat: 1.32 s⁻¹ for the first, 0.9 s⁻¹ for the second.

Compared with B8, B3 is 17-fold lower in kcat/Km: 37000 ± 5000 M⁻¹ s⁻¹ for the first, 2200 M⁻¹ s⁻¹ for the second.

First: B4
Second: B5
The kcat/Km of the first is 12-fold higher: 88000 ± 9000 M⁻¹ s⁻¹ for the first, 7600 M⁻¹ s⁻¹ for the second.

Compared with B6, B7 is 1.5-fold higher in kcat/Km: 22000 ± 3000 M⁻¹ s⁻¹ for the first, 33000 ± 4000 M⁻¹ s⁻¹ for the second.
